Reference: PMC7438317

Molecular target: GST-(PreScission site)-CYK-4 aa 146–190, phosphorylated by PLK-1 (C. elegans)
Assay: pull-down

ECT-2 aa 1–320 (ECT-2 BRCT module) (domain or fragment)
fold increase in binding against the unphosphorylated WT CYK-4 fragment: 4 fold
